Where no end group is shown, it is not given here. [ ]: non-standard residue; d: D form. dPhe(4-NO2) = N[C@H](Cc1ccc([N+](=O)[O-])cc1)C(=O)O; dPhe(F5) = N[C@H](Cc1c(F)c(F)c(F)c(F)c1F)C(=O)O; dBpa = N[C@H](Cc1ccc(C(=O)c2ccccc2)cc1)C(=O)O; dCha = N[C@H](CC1CCCCC1)C(=O)O
T1: baculovirus derived recombinant human full length Chk1 with histidine tag (human, UniProt O14757 1-476)
T1 sequence: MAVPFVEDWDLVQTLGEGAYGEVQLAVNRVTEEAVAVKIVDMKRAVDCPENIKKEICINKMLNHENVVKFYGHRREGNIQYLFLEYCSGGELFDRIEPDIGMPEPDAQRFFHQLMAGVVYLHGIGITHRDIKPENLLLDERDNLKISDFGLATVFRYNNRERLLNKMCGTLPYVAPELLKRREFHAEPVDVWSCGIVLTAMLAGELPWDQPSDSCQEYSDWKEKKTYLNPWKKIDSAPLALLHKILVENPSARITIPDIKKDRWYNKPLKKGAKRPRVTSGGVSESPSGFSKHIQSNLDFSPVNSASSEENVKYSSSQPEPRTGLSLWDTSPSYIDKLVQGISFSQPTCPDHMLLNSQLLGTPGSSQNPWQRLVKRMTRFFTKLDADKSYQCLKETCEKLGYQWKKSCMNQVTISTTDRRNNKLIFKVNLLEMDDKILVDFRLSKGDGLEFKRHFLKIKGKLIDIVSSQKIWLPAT

B1: CBP440 (peptide)
peptide: YGRKKRRQRRRXFXYY
modifications: (l-Tyr)(l-Gly)(l-Arg)(l-Lys)(l-Lys)(l-Arg)(l-Arg)(l-Gln)(l-Arg)(l-Arg)(l-Arg)(l-Cha)(l-Phe-2,3,4,5,6-F)(l-aminoundecanoic acid)(l-Tyr)(l-Tyr): position 12 cyclohexyl-alanine; position 13 pentafluoro-phenylalanine; position 14 aminoundecanoic acid

Target: PKA
Assay: cell-based or functional assay

Binder | IC50 in µM, kinase inhibition analysis (PepTag Non-Radioactive Protein Kinase Assay) [µM]
B1 | 180
[dY][dY][dS]G[dS][dR][dPhe(F5)][dCha][dR][dR][dR][dQ][dR][dR][dK][dK][dR]G[dY] [CBP450] | > 400

Target: purified CHK2 kinase (UniProt O96017 1-543)
Sequence (O96017 whole entry): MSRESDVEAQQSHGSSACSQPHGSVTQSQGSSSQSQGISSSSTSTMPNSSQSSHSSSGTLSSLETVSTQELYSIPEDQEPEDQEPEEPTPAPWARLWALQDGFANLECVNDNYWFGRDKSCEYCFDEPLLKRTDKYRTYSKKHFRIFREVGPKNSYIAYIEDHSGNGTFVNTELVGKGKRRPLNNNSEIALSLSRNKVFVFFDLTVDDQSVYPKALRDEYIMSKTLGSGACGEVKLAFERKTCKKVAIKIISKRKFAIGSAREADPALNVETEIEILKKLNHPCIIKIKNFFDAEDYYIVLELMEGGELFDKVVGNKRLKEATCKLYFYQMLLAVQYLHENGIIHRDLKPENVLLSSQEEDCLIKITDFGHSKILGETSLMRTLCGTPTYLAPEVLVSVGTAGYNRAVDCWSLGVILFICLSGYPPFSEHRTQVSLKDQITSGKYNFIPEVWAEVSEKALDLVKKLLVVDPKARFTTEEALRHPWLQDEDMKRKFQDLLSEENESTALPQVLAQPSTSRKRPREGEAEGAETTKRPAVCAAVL
Assay: cell-based or functional assay

Binder | IC50 in µM, kinase inhibition analysis (PepTag Non-Radioactive Protein Kinase Assay) [µM]
B1 | 8
[dY][dY][dS]G[dS][dR][dPhe(F5)][dCha][dR][dR][dR][dQ][dR][dR][dK][dK][dR]G[dY] [CBP450] | 10

Target: T1, baculovirus derived recombinant human …
Assay: cell-based or functional assay

Binder | Kinase inhibition analysis of peptides (phosphorylation of serine 216 on GST-Cdc25C 167-267, enzyme linked immune assay)
[dY][dBpa][dS][dW][dS][dPhe(F5)][dCha][dR][dR][dR][dQ][dR][dR] [CBP500] | 5.6
[dBpa][dS][dW][dS][dPhe(F5)][dCha][dR][dR][dR][dQ][dR][dR] [CBP501] | 7.9
[dBpa][dD][dS][dW][dS][dPhe(F5)][dCha][dR][dR][dR][dQ][dR][dR] (also: cyclised or stapled (no detail)) [CBP505] | 63.4
[dBpa][dS][dW][dS][dPhe(4-NO2)][dCha][dR][dR][dR][dQ][dR][dR] (also: cyclised or stapled (no detail)) [CBP603] | 15.5

Target: E. Coli derived recombinant human full length Chk2 fused with GST (human, UniProt O96017 1-543)
Sequence (O96017 whole entry, the tested form may be a part): as the sequence (O96017 whole entry) above
Assay: cell-based or functional assay

Binder | Kinase inhibition analysis of peptides (phosphorylation of serine 216 on GST-Cdc25C 167-267, enzyme linked immune assay)
[dY][dBpa][dS][dW][dS][dPhe(F5)][dCha][dR][dR][dR][dQ][dR][dR] [CBP500] | 8
[dBpa][dS][dW][dS][dPhe(F5)][dCha][dR][dR][dR][dQ][dR][dR] [CBP501] | 18.6
[dBpa][dD][dS][dW][dS][dPhe(F5)][dCha][dR][dR][dR][dQ][dR][dR] (also: cyclised or stapled (no detail)) [CBP505] | > 100
[dBpa][dS][dW][dS][dPhe(4-NO2)][dCha][dR][dR][dR][dQ][dR][dR] (also: cyclised or stapled (no detail)) [CBP603] | 18.1
